Consider three substances from US20020001857A1.

For experiment [1], the target named is PHF-tau (human) (UniProt P10636). The experiment in a line: competition ELISA on captured PHF-tau; biotinylated AT120, unlabeled competitor AT8 at 10 ug/ml.
Experiment [2] concerns the target affinity-purified human normal tau (human) (UniProt P10636). The experiment in a line: sandwich ELISA, AT120 coated, no tau added (background), detection with biotinylated BT2 and HT7.
Experiment [3] addresses PHF-tau (human) (UniProt P10636). The description is as above.
Experiment [4] addresses affinity-purified human normal tau (human) (UniProt P10636). The experiment in a line: sandwich ELISA, AT120 coated, tau spiked in tau-negative CSF, detection with biotinylated BT2 and HT7.
Experiment [5] deals with PHF-tau (human) (UniProt P10636). Described as above.
The target is the same in experiment [6]. The experiment in a line: competition ELISA on captured PHF-tau; biotinylated AT120, unlabeled competitor AT120 at 10 ug/ml.
The target is the same in experiment [7]. The experiment in a line: competition ELISA on captured PHF-tau; biotinylated AT8, unlabeled competitor AT120 at 10 ug/ml.
The target is the same in experiment [8]. The experiment in a line: competition ELISA on captured PHF-tau; biotinylated AT8, unlabeled competitor AT8 at 10 ug/ml.
Experiment [9] has the same target. The experiment in a line: competition ELISA on captured PHF-tau; biotinylated BT2, unlabeled competitor BT2 at 10 ug/ml.
Experiment [10] has the same target. The experiment in a line: competition ELISA on captured PHF-tau; biotinylated BT2, unlabeled competitor AT120 at 10 ug/ml.

In the experiment with PHF-tau (human) [1], monoclonal antibody AT120 returned an absorbance of 0.476 absorbance. Further, the absorbance at 0 pg/ml (blank) (milliabsorbance units) in experiment [2] worked out at 87. In the experiment with PHF-tau (human) [3], this substance yielded an absorbance at 0 pg/ml (blank) (milliabsorbance units) of 92. Also, in experiment [4], the absorbance at 10 pg/ml (milliabsorbance units) amounted to 154, the absorbance at 20 pg/ml (milliabsorbance units) was determined as 256, the absorbance at 40 pg/ml (milliabsorbance units) was 678 and the absorbance at 80 pg/ml (milliabsorbance units) stood at 970. In experiment [4], this substance gave an absorbance at 160 pg/ml (milliabsorbance units) of 1610. In the experiment with PHF-tau (human) [5], the absorbance at 10 pg/ml (milliabsorbance units) turned out to be 143, the absorbance at 20 pg/ml (milliabsorbance units) is 257, the absorbance at 40 pg/ml (milliabsorbance units) amounted to 566 and the absorbance at 80 pg/ml (milliabsorbance units) is 901. Also, the absorbance at 160 pg/ml (milliabsorbance units) with PHF-tau (human) [5] stood at 1680. In the experiment with PHF-tau (human) [6], the absorbance was 0.001 absorbance.
monoclonal antibody AT8: the absorbance with PHF-tau (human) [7] was 0.372 absorbance; with PHF-tau (human) [8], 0.001 absorbance.
As for monoclonal antibody BT2, the results for the absorbance in the experiment with PHF-tau (human) [9] and in the experiment with PHF-tau (human) [10] were 0.054 absorbance and 0.543 absorbance, respectively.
